Reference: patent US20050138692A1
Several values for one entry are separate records, joined by “and”; a condition that tells them apart may be missing. Equal entries are not always repeated.

Target: native Ag GA733-2 on colorectal carcinoma cell line SW948 (human) (UniProt P16422)
Assay: cell ELISA on fixed SW948 cells, antibody at 0.93 ug/ml

Chain of UniProt P16422 (P16422 24-314): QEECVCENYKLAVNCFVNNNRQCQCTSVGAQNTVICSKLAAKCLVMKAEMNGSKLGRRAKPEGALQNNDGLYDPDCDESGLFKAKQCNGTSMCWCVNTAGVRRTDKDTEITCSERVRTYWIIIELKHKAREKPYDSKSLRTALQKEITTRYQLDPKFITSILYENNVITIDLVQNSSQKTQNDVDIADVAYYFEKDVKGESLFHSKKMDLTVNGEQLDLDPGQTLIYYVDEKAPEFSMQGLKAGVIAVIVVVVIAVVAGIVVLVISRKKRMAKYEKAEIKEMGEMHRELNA

For “MAb CO17-1A purified from the hybridoma supernatant (antibody)”, which absorbance (absorbance (OD)) is on record?
The absorbance (absorbance (OD)) was 0.933 and 0.896.
